Results: patent publication US20220175942A1 (OXFORD UNIVERSITY INNOVATION, published 2022)

B1: P546_AMBCA (other)
chain: ENTQQEEEDYDYGTDTCPFPVLANKTNKAKFVGCHQKCNGGDQKLTDGTACYVVERKVWDRMTPMLWYSCPLGECKNGVCEDLRKKEECRKGNGEEK
notes: Tick evasin; also called Evasin
B6: CCL5_HUMAN (ligand)
chain: SPYSSDTTPCCFAYIARPLPRAHIKEYFYTSGKCSNPAVVFVTRKNRQVCANPEKKWVREYINSLEMS
notes: Biotinylated (detected with streptavidin-Alexa647) in yeast display; AlexaFluor 647 labelled (Almac) in thermophoresis

How the values were obtained:
CCL25_HUMAN = target: T1, CCL25_HUMAN (human, UniProt O15444 24-150); test: microscale thermophoresis, AlexaFluor 647 labelled chemokine
T1 construct: Biotinylated (detected with streptavidin-Alexa647) in yeast display; AlexaFluor 647 labelled (Almac) in thermophoresis
T1 sequence: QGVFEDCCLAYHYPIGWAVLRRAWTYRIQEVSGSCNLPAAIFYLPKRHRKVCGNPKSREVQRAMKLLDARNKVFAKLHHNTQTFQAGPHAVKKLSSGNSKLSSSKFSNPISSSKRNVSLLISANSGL

P983_AMBCA = target: T2, P983_AMBCA (Amblyomma cajennense, UniProt A0A023FFB5 22-119); test: yeast surface display FACS re-test, >3 fold MFI over control (col D);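 note: yeast displaying putative tick Evasins stained with biotinylated human chemokine plus streptavidin-Alexa647, flow cytometry, positive when MFI exceeds 3-fold the empty-vector or no-chemokine background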
T2 construct: Tick evasin; also called Evasin
T2 sequence: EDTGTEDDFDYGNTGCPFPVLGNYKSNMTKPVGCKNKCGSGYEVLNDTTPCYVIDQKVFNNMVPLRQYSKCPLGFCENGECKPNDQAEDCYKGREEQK

P985_AMBPA [1] = target: T3, P985_AMBPA (Amblyomma parvum, UniProt A0A023FT45 25-132); test: as above
T3 construct: Tick evasin; also called Evasin
T3 sequence: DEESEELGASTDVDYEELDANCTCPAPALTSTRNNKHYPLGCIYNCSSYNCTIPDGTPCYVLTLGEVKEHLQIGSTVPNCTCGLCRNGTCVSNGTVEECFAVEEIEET

P546_AMBCA [2] = target: B1; test: as above
P1181_AMBMA = target: T4, P1181_AMBMA (Amblyomma maculatum, UniProt G3MIX6 26-115); test: yeast surface display library FACS screen, labelled chemokine (col C: isolated in)
T4 construct: Tick evasin; also called Evasin
T4 sequence: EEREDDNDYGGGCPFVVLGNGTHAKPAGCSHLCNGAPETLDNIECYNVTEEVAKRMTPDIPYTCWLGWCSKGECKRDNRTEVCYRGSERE

P1182_AMBMA = target: T5, P1182_AMBMA (Amblyomma maculatum, UniProt G3MJ83 27-115); test: as above
T5 construct: Tick evasin; also called Evasin
T5 sequence: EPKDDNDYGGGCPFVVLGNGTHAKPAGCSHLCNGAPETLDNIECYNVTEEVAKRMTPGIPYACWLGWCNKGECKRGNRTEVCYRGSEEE

P974_AMBCA = target: T6, P974_AMBCA (Amblyomma cajennense, UniProt A0A023FDY8 22-118); test: as above
T6 construct: Tick evasin; also called Evasin
T6 sequence: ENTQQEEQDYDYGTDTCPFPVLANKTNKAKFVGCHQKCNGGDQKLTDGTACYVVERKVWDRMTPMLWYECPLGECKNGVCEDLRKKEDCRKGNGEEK

P1180_AMBTR = target: T7, P1180_AMBTR (Amblyomma triste, UniProt A0A023G6B6 26-116); test: as above
T7 construct: Tick evasin; also called Evasin
T7 sequence: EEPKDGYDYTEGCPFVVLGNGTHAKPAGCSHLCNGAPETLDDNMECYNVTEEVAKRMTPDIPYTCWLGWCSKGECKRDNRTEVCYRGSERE

P1243_AMBAM [3] = target: T8, P1243_AMBAM (Amblyomma americanum, UniProt A0A0C9S461 26-123); test: as above
T8 construct: Tick evasin; also called Evasin
T8 sequence: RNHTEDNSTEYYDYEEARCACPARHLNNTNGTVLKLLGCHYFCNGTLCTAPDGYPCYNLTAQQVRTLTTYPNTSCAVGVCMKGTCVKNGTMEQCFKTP

P991_AMBCA = target: T9, P991_AMBCA (Amblyomma cajennense, UniProt A0A023FFD0 29-136); test: as above
T9 construct: Tick evasin; also called Evasin
T9 sequence: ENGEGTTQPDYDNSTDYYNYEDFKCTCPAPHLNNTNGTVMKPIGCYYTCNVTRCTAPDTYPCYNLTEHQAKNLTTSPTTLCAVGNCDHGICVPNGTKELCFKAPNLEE

P672_RHIPU = target: T10, P672_RHIPU (Rhipicephalus pulchellus, UniProt L7MC74 22-125); test: as above
T10 construct: Tick evasin; also called Evasin
T10 sequence: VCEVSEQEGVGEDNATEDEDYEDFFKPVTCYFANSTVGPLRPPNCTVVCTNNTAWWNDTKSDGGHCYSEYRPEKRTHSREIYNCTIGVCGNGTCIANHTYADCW

P546_AMBCA [4] = target: B1; test: microscale thermophoresis, AlexaFluor 647 labelled chemokine
CCL18_HUMAN = target: T11, CCL18_HUMAN (human, UniProt P55774 21-89); test: yeast surface display FACS re-test, >3 fold MFI over control (col D);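 note: yeast displaying putative tick Evasins stained with biotinylated human chemokine plus streptavidin-Alexa647, flow cytometry, positive when MFI exceeds 3-fold the empty-vector or no-chemokine background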
T11 construct: Biotinylated (detected with streptavidin-Alexa647) in yeast display; AlexaFluor 647 labelled (Almac) in thermophoresis
T11 sequence: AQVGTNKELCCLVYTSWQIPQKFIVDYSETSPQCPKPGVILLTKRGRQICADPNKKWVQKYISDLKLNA

CCL11_HUMAN = target: T12, CCL11_HUMAN (human, UniProt P51671 24-97); test: yeast surface display library FACS screen, labelled chemokine (col C: isolated in)
T12 construct: Biotinylated (detected with streptavidin-Alexa647) in yeast display; AlexaFluor 647 labelled (Almac) in thermophoresis

CXCL8_HUMAN = target: T13, CXCL8_HUMAN (human, UniProt P10145 28-99); test: as above
T13 construct: Biotinylated (detected with streptavidin-Alexa647) in yeast display; AlexaFluor 647 labelled (Almac) in thermophoresis
T13 sequence: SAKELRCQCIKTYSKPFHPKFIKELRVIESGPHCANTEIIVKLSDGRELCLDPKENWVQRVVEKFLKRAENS

CCL1_HUMAN = target: T14, CCL1_HUMAN (human, UniProt P22362 24-96); test: as above
T14 construct: Biotinylated (detected with streptavidin-Alexa647) in yeast display; AlexaFluor 647 labelled (Almac) in thermophoresis
T14 sequence: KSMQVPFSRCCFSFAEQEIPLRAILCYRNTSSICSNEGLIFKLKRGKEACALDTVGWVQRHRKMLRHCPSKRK

CCL5_HUMAN = target: B6; test: microscale thermophoresis, AlexaFluor 647 labelled chemokine
P1243_AMBAM [5] = target: T8, P1243_AMBAM; test: as above
P467_RHIPU = target: T15, P467_RHIPU (Rhipicephalus pulchellus, UniProt L7M8Z8 22-127); test: as above
T15 construct: Tick evasin; also called Evasin
T15 sequence: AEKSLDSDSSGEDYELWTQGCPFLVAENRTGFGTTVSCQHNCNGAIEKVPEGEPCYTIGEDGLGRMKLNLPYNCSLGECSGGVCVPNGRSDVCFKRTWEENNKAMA

P985_AMBPA [6] = target: T3, P985_AMBPA; test: as above

T12 sequence (P51671 24-97 limits assumed): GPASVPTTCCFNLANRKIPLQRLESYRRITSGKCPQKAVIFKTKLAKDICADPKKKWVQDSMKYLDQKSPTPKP

## B1
CCL25_HUMAN
  Kd: 1220 nM

B2: CCL4 (ligand)
chain: APMGSDPPTACCFSYTARKLPRNFVVDYYETSSLCSQPAVVFQTKRSKQVCADPSESWVQEYVYDLELN
notes: Biotinylated (detected with streptavidin-Alexa647) in yeast display; also called human CCL4
P983_AMBCA
  binding result: binds
P985_AMBPA [1]
  binding result: binds
P546_AMBCA [2]
  binding result: binds
P1181_AMBMA
  binding result: binds
P1182_AMBMA
  binding result: binds
P974_AMBCA
  binding result: binds
P1180_AMBTR
  binding result: binds
P1243_AMBAM [3]
  binding result: binds
P991_AMBCA
  binding result: binds

B3: CCL8_HUMAN (ligand)
chain: QPDSVSIPITCCFNVINRKIPIQRLESYTRITNIQCPKEAVIFKTKRGKEVCADPKERWVRDSMKHLDQIFQNLKP
notes: as for B6
P1182_AMBMA
  binding result: binds
P672_RHIPU
  binding result: binds
P546_AMBCA [4]
  Kd: 80 nM

B4: P1215_AMBPA (other)
chain: KTDTKNAAGELPPKVVIPGCEDPATTKAPLPDEPPYYGITIDKDGCQRKVLGSSQRQQRKVQNGRKLDGKKRGRRPVFVDLELTVDCKRKCNGTYSQLPDGENCLVSDGYPYGRWGTIKGGCYQGNCSSGQCHRGEKKVNCYLPKNITNDVPKSLNLAE
notes: as for B1
CCL18_HUMAN
  binding result: binds
CCL11_HUMAN
  binding result: binds
CXCL8_HUMAN
  binding result: binds
CCL1_HUMAN
  binding result: binds
CCL5_HUMAN
  Kd: 73 nM

B5: CCL15_HUMAN (ligand)
chain: QFTNDAETELMMSKLPLENPVVLNSFHFAADCCTSYISQSIPCSLMKSYFETSSECSKPGVIFLTKKGRQVCAKPSGPGVQDCMKKLKPYSI
notes: as for B6
P1243_AMBAM [5]
  Kd: 4 nM

## B6
P467_RHIPU
  Kd: 48 nM
P985_AMBPA [6]
  Kd: 48 nM
